Where a chain is given by its changes, count along the chain named. In names and notes the source's numbering stands.
B1: VH4 C102A/VK2 (antibody, IgG1, V domains shown)
VH: QVQLVQSGAEVKKPGSSVKVSCKASGYTFTSYWIHWVRQAPGQGLEWIGLIDPSDSYTNYNQKFRGRVTITVDTSTSTAYMELSSLRSEDTAVYYCASSDPTGAWGQGTTVTVSS
VL: DIVMTQAAFSNPVTPGTPASISCRSSKSLLHSSGITYLSWYLQKPGQSPQLLIYQMSNLASGVPDRFSSSGSGTDFTLKISRVEAEDVGVYYCAQNLELPLTFGQGTKLEIK
notes: IgG1, tested from HEK supernatant
B2: VH4 C102G/VK2 (antibody, IgG1, V domains shown)
VH: B1 VH with A104G
VL: B1 VL
notes: IgG1, tested from HEK supernatant; also called VH4-102G
B3: VH4 C102L/VK2 (antibody, IgG1, V domains shown)
VH: B1 VH with A104L
VL: B1 VL
notes: IgG1, tested from HEK supernatant; also called VH4-102L
B4: VH4 C102S/VK2 (antibody, IgG1, V domains shown)
VH: B1 VH with A104S
VL: B1 VL
notes: as for B1
B5: VH4 C102T/VK2 (antibody, IgG1, V domains shown)
VH: B1 VH with A104T
VL: B1 VL
notes: as for B1
B6: VH4 C102V/VK2 (antibody, IgG1, V domains shown)
VH: B1 VH with A104V
VL: B1 VL
notes: IgG1, tested from HEK supernatant; also called VH4-102V
B7: VH4/VK4 (antibody, IgG1, V domains shown)
VH: B1 VH with A104C
VL: B1 VL with A7S, A8P, F9L, N11L, T17E, S69G
notes: Expressed as IgG1
B8: VH5 C102A/VK2 (antibody, IgG1, V domains shown)
VH: B1 VH with V72R
VL: B1 VL
notes: as for B1
B9: VH5 C102L/VK2 (antibody, IgG1, V domains shown)
VH: B1 VH with V72R, A104L
VL: B1 VL
notes: IgG1, tested from HEK supernatant; also called VH5-102L
B10: VH5 C102S/VK2 (antibody, IgG1, V domains shown)
VH: B1 VH with V72R, A104S
VL: B1 VL
notes: as for B1
B11: VH5 C102V/VK2 (antibody, IgG1, V domains shown)
VH: B1 VH with V72R, A104V
VL: B1 VL
notes: IgG1, tested from HEK supernatant; also called VH5-102V
B12: VH5/VK1 (antibody, IgG1, V domains shown)
VH: B1 VH with V72R, A104C
VL: B1 VL with V13I, K79R
notes: Expressed as IgG1
B13: VH5/VK3 (antibody, IgG1, V domains shown)
VH: B1 VH with V72R, A104C
VL: B1 VL with A7S, A8P, F9L, N11L, T17E
notes: Expressed as IgG1
B14: VH5/VK4 (antibody, IgG1, V domains shown)
VH: B1 VH with V72R, A104C
VL: B1 VL with A7S, A8P, F9L, N11L, T17E, S69G
notes: Expressed as IgG1
B15: VH6/VK1 (antibody, IgG1, V domains shown)
VH: B1 VH with R65Q, V72R, A104C
VL: B1 VL with V13I, K79R
notes: Expressed as IgG1
B16: VH6/VK3 (antibody, IgG1, V domains shown)
VH: B1 VH with R65Q, V72R, A104C
VL: B1 VL with A7S, A8P, F9L, N11L, T17E
notes: Expressed as IgG1
B17: humanized anti-fibrin antibody variant VH5 C102G/VK2 (antibody, IgG1, V domains shown)
VH: B1 VH with V72R, A104G
VL: B1 VL
notes: IgG1, tested from HEK supernatant in the SPR assay; also called VH5 C102G/Vκ2; VH5-102G
B18: VH1/VK1 (antibody, V domains shown)
VH: B1 VH with V11L, S16T, V20L, R38K, V68A, I70L, E82Q, R87T, T91S, A104C
VL: B1 VL with V13I, K79R
B19: VH1/VK2 (antibody, V domains shown)
VH: B1 VH with V11L, S16T, V20L, R38K, V68A, I70L, E82Q, R87T, T91S, A104C
VL: B1 VL
B20: VH1/VK3 (antibody, V domains shown)
VH: B1 VH with V11L, S16T, V20L, R38K, V68A, I70L, E82Q, R87T, T91S, A104C
VL: B1 VL with A7S, A8P, F9L, N11L, T17E
B21: VH1/VK4 (antibody, V domains shown)
VH: B1 VH with V11L, S16T, V20L, R38K, V68A, I70L, E82Q, R87T, T91S, A104C
VL: B1 VL with A7S, A8P, F9L, N11L, T17E, S69G
B22: VH4/VK3 (antibody, V domains shown)
VH: B1 VH with A104C
VL: B1 VL with A7S, A8P, F9L, N11L, T17E

What was measured:
[1] = molecular target: plasminogen-depleted human Fibrinogen (EMD/Calbiochem) (human) (UniProt P02671); experiment: ELISA on plate-coated human fibrinogen, antibody titrated, A450
[2] = molecular target: T1, P2 peptide comprising SEQ ID NO: 31 (human fibrin γ377-395) (human); experiment: SPR (Biacore) single cycle, steady state affinity; IgG from HEK supernatant captured, γ377-395 peptide analyte
T1 construct: Bought (CPC Scientific 920712); also called human P2 peptide
T1 peptide: YSMKKTTMKIIPFNRLTIG

[3] = molecular target: T1, P2 peptide comprising SEQ ID NO: 31 …; experiment: SPR (Biacore) single cycle, steady state fit; IgG from HEK supernatant captured, P2 peptide analyte
Procedure: FIG. 18 illustrates the procedure used for the single cycle kinetics analysis. The Biacore T200 […] instrument was used for single cycle kinetics analysis with the control software v2.0.1, and evaluation software V3.0. The anti-human capture chip was used with a running buffer consisting of HBS-P+ buffer (pH 7.4) containing 0.1% BSA at 25° C. a flow rate of 30 μl/min. Neat HEK supernatants were used as ligand and loaded to ˜1674 RU at 10 μl/min. P2 peptide comprising SEQ ID NO: 31 (CPC Scientific 920712, Lot #CS-02-00350) was the analyte for the analysis. […] Regeneration was performed with MgCl₂. Antibodies were diluted in running buffer to a final concentration of 20 μg/ml, based on concentrations assessed by Octet titre. At the start of each cycle, antibodies were loaded onto Fc2, Fc3 and Fc4 of the anti-human capture chip (GE Healthcare, Little Chalfont, UK). IgGs were captured at a flow rate of 10 μl/min to give an immobilization level (RL) of ˜ 1674 RU, the theoretical value to obtain an RMax of ˜50 RU. The surface was then allowed to stabilize. Single cycle kinetic data was obtained with P2 peptide as the analyte at a flow rate of 30 μl/min to minimize any potential mass transport limitations. […] The signal from the reference channel Fc1 (no antibody) was subtracted from that of Fc2, Fc3 and Fc4 to correct for differences in non-specific binding to a reference surface. […] The association phase for the five injections of increasing concentrations of P2 peptide was monitored for 20 seconds each time and a single dissociation phase was measured for 25 seconds following the last injection analyte. Regeneration of the anti-human capture surface was conducted using one injection of 3.8 M magnesium chloride.

Chain of plasminogen-depleted human Fibrinogen (EMD/Calbiochem) (human) (P02671 20-629 limits assumed, chain 1 of 3): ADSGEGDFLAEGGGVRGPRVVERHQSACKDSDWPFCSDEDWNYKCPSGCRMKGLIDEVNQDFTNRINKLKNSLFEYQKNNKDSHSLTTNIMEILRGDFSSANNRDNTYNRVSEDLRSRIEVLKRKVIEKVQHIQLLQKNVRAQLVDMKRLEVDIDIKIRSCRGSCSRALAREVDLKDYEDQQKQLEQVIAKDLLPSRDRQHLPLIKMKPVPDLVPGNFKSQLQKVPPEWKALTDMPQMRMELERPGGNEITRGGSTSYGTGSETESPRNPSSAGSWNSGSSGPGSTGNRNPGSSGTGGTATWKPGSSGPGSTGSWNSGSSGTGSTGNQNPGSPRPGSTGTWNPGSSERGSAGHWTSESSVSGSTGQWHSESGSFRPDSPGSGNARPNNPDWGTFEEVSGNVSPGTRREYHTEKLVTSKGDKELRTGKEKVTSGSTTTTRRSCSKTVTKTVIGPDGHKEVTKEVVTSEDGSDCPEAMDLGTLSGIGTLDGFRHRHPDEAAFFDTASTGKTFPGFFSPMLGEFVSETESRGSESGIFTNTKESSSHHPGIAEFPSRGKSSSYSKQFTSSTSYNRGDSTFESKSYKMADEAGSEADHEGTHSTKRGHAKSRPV
Chain of plasminogen-depleted human Fibrinogen (EMD/Calbiochem) (human) (P02675 31-491 limits assumed, chain 2 of 3, further chain): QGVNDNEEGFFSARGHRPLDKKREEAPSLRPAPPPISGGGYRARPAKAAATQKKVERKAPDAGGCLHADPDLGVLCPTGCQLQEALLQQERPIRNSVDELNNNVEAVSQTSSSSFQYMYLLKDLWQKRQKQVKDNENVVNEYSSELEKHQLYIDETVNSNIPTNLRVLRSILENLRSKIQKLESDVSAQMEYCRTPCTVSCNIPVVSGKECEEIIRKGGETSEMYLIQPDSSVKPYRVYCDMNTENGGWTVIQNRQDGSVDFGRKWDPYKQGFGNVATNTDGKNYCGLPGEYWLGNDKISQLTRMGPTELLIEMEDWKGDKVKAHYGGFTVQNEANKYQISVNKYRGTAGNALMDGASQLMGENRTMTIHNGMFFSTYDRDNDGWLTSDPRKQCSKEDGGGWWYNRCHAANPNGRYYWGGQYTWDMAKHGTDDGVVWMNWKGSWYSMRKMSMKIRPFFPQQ
Chain of plasminogen-depleted human Fibrinogen (EMD/Calbiochem) (human) (P02679 other isoform, or with tags, fused parts or gaps limits assumed, chain 3 of 3, further chain): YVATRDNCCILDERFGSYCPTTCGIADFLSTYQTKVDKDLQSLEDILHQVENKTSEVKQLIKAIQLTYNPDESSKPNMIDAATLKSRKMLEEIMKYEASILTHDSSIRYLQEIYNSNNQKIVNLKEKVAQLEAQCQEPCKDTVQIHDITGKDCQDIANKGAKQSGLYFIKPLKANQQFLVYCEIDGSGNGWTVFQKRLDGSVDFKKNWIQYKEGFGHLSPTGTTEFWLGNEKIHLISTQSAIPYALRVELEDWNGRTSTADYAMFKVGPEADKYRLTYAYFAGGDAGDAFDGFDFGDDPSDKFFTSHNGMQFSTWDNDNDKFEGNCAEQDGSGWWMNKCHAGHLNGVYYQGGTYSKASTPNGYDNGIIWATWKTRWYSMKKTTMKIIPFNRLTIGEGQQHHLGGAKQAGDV

Molecule | EC50 [1] [µM] | Kd [2] [µM] | Relative KD [2] | Kd [3] [µM] | Relative KD [3] [fold against VH0/VK0]
mouse IgG2b isotype control (antibody) | 1.84 | – | – | – | –
B1 | – | 72 | 1.53 fold against VH4/VK2 | – | –
B2 | – | 22 | 0.59 fold against VH4/VK2 | – | –
B3 | – | 93 | 1.98 fold against VH4/VK2 | – | –
B4 | – | 66 | 1.41 fold against VH4/VK2 | – | –
B5 | – | 49 | 1.05 fold against VH4/VK2 | – | –
B6 | – | 33 | 0.7 fold against VH4/VK2 | – | –
B7 | – | – | – | 157 | 1.77
B8 | – | 110 | 1.44 fold against VH5/VK2 | – | –
B9 | – | 140 | 1.77 fold against VH5/VK2 | – | –
B10 | – | 110 | 1.33 fold against VH5/VK2 | – | –
B11 | – | 44 | 0.56 fold against VH5/VK2 | – | –
B12 | – | – | – | 173 | 1.95
B13 | – | – | – | 279 | 3.15
B14 | – | – | – | 277 | 3.12
B15 | – | – | – | 174 | 1.96
B16 | – | – | – | 192 | 2.16
B17 | – | 39 | 0.5 fold against VH5/VK2 | – | –
B18 | – | – | – | 104 | –
B19 | – | – | – | 96.4 | 1.09
B20 | – | – | – | 200 | 2.25
B21 | – | – | – | 176 | 1.98
B22 | – | – | – | 148 | 1.67
